Measured values: patent US20250136696A1 (HARBOUR BIOMED SHANGHAI, published 2025)
Numbering of substitutions follows the chain as printed.

B1: PR003251 (antibody, human IgG1, kappa, V domains shown)
VH: QVQLVESGGGVVQPGRSLRLSCAVSGFTFSRYGMHWVRQAPGKGLDWVAVIWYNGNNKYYTDSVKGRFTISRDNSKNTLFLQMNSLRAEDTAVYYCARDGAYSYGPFDYWGQGTLVTVSS
VL: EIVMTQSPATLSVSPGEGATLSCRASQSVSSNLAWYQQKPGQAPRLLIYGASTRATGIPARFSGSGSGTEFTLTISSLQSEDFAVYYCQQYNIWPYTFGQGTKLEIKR
notes: Human IgG1; also called 29F2C8
B2: PR003254 (antibody, human IgG1, kappa, V domains shown)
VH: B1 VH with V24A, R31S, D46E, V50D, T61A, F80Y, V93L, A101G
VL: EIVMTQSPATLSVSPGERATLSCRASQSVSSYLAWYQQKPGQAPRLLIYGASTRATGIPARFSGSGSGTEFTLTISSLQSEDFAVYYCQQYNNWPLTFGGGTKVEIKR
notes: Human IgG1; also called 59D6D2
B3: PR003262 (antibody, human IgG1, kappa, V domains shown)
VH: B1 VH with V24A, M34I, D46E, N56R, T61V, F80Y, A101G
VL: EIVMTQSPATLSVSPGERATLSCRASQSFSNNLAWYQQKPGQAPRLLIYGASTRATGIPARFSGSGSGTEFTLTISSLQSEDFAVYYCHQYNIWPLTFGGGTKVEIKR
notes: Human IgG1; also called 77D5A4
B4: PR003260 (antibody, human IgG1, kappa, V domains shown)
VH: QVQLVESGGGVVQPGRSLRLPCAASGFTFSRYGMHWVRQAPGKGLEWVADIWYDGSKKYYADSVKGRFTISRDNSKNTLYLQMNSLRAEDTAVYFCTRDGGYSYGPFDYWGQGTLVTVSS
VL: B3 VL with F29V, N31S, G50Y, T56P, G66E, H89Q, L96Y, G100Q, V104L
notes: Human IgG1; also called 70F3B1
B5: PR003263 (antibody, human IgG1, kappa, V domains shown)
VH: QVQLVESGGGVVQPGRSLRLSCAASGFTFSYYGLNWVRQAPGKGLEWVAVIWFDGTNKYYADSVKGRFTISRDDSKNTLYLQMNSLRAEDTAVYYCARGYGSGSYYNYVMDAWGQGASVTVSS
VL: B3 VL with F29V, N31S, R54G, E70D, H89Q, N92Y, I93K
notes: Human IgG1; also called 77E6C4
B6: PR003264 (antibody, human IgG1, kappa)
heavy: not shown
light: DIQLTQSPSFLSASVGDRVTITCRASQGISSYFAWYQQKPGKAPKLLIYAASTLQSGVPSRFSGSGSGTEFTLTISSLQPEDFATYYCQHLNRYPWTFGQGTKVEIKRTVAAPSVFIFPPSDEQLKSGTASVVCLLNNFYPREAKVQWKVDNALQSGNSQESVTEQDSKDSTYSLSSTLTLSKADYEKHKVYACEVTHQGLSSPVTKSFNRGEC
notes: Human IgG1; also called 77G10D3

Legend:
[1] = target: T1, human B7-H7 on the cell surface (human, UniProt Q9UM44 23-414); assay: flow cytometry, HEK-293/hu B7-H7 cells
T1 construct: whole, on cells; also called hB7-H7; hu B7-H7
T1 sequence (looked up): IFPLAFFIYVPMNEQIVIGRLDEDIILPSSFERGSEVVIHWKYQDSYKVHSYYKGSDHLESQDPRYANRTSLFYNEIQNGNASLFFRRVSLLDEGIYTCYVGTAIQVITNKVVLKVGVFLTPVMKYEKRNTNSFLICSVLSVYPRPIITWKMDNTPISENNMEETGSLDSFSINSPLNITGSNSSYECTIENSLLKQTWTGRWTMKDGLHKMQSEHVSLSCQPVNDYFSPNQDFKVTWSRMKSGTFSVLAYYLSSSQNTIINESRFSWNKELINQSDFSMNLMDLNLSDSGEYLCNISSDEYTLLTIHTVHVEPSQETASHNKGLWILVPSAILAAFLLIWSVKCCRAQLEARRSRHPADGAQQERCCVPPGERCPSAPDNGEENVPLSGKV
Protocol: (§1) This example was intended to study the in vitro activity of H2L2 monoclonal antibodies against human B7-H7 in binding to human/cynomolgus monkey B7-H7. Since homologous molecules of B7-H7 were not present in mice, the detection was not performed. […] The cells were adjusted to a cell density of 1×10⁶ cells/mL, respectively. The cells were seeded in a 96-well V-bottom plate (Corning, #3894) at 100 μL/well, and the antibody to be tested at 2× final concentration with 3-fold concentration gradient dilution was then added at 100 μL/well. The cells were incubated at 4° C. for 2 hours in the dark. After the incubation, the cells were rinsed twice by adding pre-chilled PBS containing 2% BSA at 100 μl/well, and centrifuged at 500 g at 4° C. for 5 minutes, and the supernatant was discarded. […] The cells were washed twice by adding pre-chilled PBS containing 2% BSA at 100 μL/well, and centrifuged at 500 g at 4° C. for 5 minutes, and the supernatant was discarded. Finally, the cells were resuspended in pre-chilled PBS containing 2% BSA at 200 μL/well, and the fluorescence signal values were read using an ACEA Novocyte3000 flow cytometer.

[2] = target: T2, biotinylated human B7-H7 protein (Acro Biosystems, B77-H82F5) (human, UniProt Q9UM44 23-344, biotinylated); assay: flow cytometry, blocking of biotinylated human B7-H7 binding to HEK-293/CD28H cells
T2 construct: Bought soluble protein; also called biotin-B7H7 protein
T2 sequence (looked up): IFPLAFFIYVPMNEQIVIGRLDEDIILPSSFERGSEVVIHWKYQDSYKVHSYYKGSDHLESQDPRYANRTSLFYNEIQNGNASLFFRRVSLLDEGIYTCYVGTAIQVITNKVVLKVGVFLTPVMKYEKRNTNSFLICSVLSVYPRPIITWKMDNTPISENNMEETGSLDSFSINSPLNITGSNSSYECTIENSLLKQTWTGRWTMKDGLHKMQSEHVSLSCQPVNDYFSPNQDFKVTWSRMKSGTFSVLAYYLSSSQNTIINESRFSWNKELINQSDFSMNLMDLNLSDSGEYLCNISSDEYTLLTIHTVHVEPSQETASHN

[3] = target: T2, biotinylated human B7-H7 protein (Acro …); assay: BLI epitope competition on SA-captured biotinylated B7-H7; competitor (first antibody) PR003251
Protocol: Epitope competition experiments were performed on the anti-B7-H7 antibodies using the ForteBio Octet Red96e platform with the same experimental buffer as described above. […] After being equilibrated in a buffer for 120 s, the sensors were immersed in various antibodies diluted to 100 nM for 240 s, and the final signal of the antibody binding to B7-H7 was recorded as the 100% signal for that antibody. Second step, epitope competition experiment: B7-H7 was captured using SA sensors at a capture height of 0.25 nm. The sensors were immersed in a first antibody (concentration: 100 nM) for 240 s, then the SA sensors were immersed in a mixture of the first antibody and a second antibody (final concentration of both antibodies: 100 nM) for 240 s, and the difference in signals before and after immersing the sensors in the mixture of the two antibodies was recorded as the signal for that antibody as the second antibody. The inhibition rate was calculated by the following equation, […]

[4] = target: T3, cynomolgus monkey B7-H7 on the cell surface (cynomolgus monkey); assay: flow cytometry, HEK-293/cyno B7-H7 cells
T3 construct: whole, on cells; also called cyno B7-H7
Protocol: as §1

| Binder | EC50 [1] [nM] | Maximum MFI [1] [MFI] | IC50 [2] [nM] | Maximum inhibition rate (%) [2] [%] | Competitive inhibition rate (%) [3] [%] | EC50 [4] [nM] | Maximum MFI [4] [MFI] |
| --- | --- | --- | --- | --- | --- | --- | --- |
| B1 | 1.07 | 813000 | 1.24 | 16.2 | 97.9 | 0.522 | 430000 |
| B2 | 1.95 | 762000 | 1.59 | 27.4 | 99.1 | 1.24 | 389000 |
| B3 | 1.33 | 822000 | 3.37 | 26.4 | 96.4 | 0.59 | 419000 |
| B4 | 1.13 | 807000 | 2.47 | 20.4 | 100 | 0.588 | 447000 |
| B5 | 1.06 | 763000 | 1.7 | 59.3 | 96.9 | 0.556 | 410000 |
| B6 | 1.68 | 756000 | 1.52 | 101 | – | 0.829 | 290000 |
